Source: patent US20250388669A1 (published 2025)
Blank lines part the entries; values can stand above or below the binder they belong to.

Columns and labels:
CD40 = CD40 (UniProt P25942 21-193, limits assumed); assay: FCM or ELISA, graded
PD-L1 (binding assay) = PD-L1 (binding assay) (UniProt Q9NZQ7 19-238, limits assumed); assay: FCM or ELISA, graded
CD137 (binding assay) = CD137 (binding assay) (UniProt Q07011 24-186, limits assumed); assay: FCM or ELISA, graded
PD-1 (binding assay) = PD-1 (binding assay) (UniProt Q15116 25-167, limits assumed); assay: FCM or ELISA, graded
PD-1 (binding assay), sequence (Q15116 25-167 limits assumed): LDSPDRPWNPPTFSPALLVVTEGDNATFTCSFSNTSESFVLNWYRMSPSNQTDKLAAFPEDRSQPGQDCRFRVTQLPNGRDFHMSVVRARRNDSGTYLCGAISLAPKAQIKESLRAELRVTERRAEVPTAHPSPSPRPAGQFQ

PD-L1 [1] = molecular target: T1, PD-L1 (human, UniProt Q9NZQ7 19-238, limits assumed); assay: PD-L1 binding, FCM or ELISA
T1 construct: In the reporter assay it is on Raji cells expressing human PD-L1
T1 sequence (Q9NZQ7 19-238 limits assumed): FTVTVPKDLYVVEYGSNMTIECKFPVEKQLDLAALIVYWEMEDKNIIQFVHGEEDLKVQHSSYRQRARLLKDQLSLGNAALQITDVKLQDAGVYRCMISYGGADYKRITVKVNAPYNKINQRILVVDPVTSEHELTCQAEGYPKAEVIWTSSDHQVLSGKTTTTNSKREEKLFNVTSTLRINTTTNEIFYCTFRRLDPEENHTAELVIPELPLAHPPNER

PD-L1 [2] = molecular target: T2, PD-L1 (human, UniProt Q9NZQ7 19-238, limits assumed); assay: PD-L1 binding (FIG. 14A; method not specified); reference antibody
T2 construct: The reporter assay used Raji cells expressing human PD-L1
T2 sequence (Q9NZQ7 19-238 limits assumed): as above

PD-L1 (binding assay), sequence (Q9NZQ7 19-238 limits assumed): as above
CD40, sequence (P25942 21-193 limits assumed): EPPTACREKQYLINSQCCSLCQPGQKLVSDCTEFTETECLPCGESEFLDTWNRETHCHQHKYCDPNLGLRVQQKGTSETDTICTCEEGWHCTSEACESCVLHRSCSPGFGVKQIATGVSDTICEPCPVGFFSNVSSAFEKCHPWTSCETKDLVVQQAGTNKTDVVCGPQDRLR

B1: Ly2438 (bispecific antibody)
heavy 1: QVQLVQSGAEVKKPGASVKVSCKASGYTFTDFWMSWVRQAPGQGLEWMGQIYPNTGTTHSNEKFKGRVTMTRDTSTSTVYMELSSLRSEDTAVYYCARSYHISTTPNWFAYWGQGTLVTVSSASTKGPSVFPLAPSSKSTSGGTAALGCLVKDYFPEPVTVSWNSGALTSGVHTFPAVLQSSGLYSLSSVVTVPSSSLGTQTYICNVNHKPSNTKVDKKVEPKSCGGGGSGGGGSGGGGSGGGGSEVQLVESGGGLVQPGGSLRLSCAASGFTFTNYGLHWVRQAPGKGLEWVSSISPSGGVTYYRDSVKGRFTISRDNSKNTLYLQMNSLRAEDTAVYYCAKPFLGWGGANWIAHWGQGTLVTVSSGGGGSDKTHTCPPCPAPEAAGPSVFLFPPKPKDTLMISRTPEVTCVVVDVSHEDPEVKFNWYVDGVEVHNAKTKPREEQYNSTYRVVSVLTVLHQDWLNGKEYKCKVSNKALPAPIEKTISKAKGQPREPQVYTLPPSREEMTKNQVSLWCLVKGFYPSDIAVEWESNGQPENNYKTTPPVLDSDGSFFLYSKLTVDKSRWQQGNVFSCSVMHEALHNHYTQKSLSLSPG
heavy 2: QVQLVQSGAEVKKPGASVKVSCKASGYTFTDFWMSWVRQAPGQGLEWMGQIYPNTGTTHSNEKFKGRVTMTRDTSTSTVYMELSSLRSEDTAVYYCARSYHISTTPNWFAYWGQGTLVTVSSASTKGPSVFPLAPSSKSTSGGTAALGCLVKDYFPEPVTVSWNSGALTSGVHTFPAVLQSSGLYSLSSVVTVPSSSLGTQTYICNVNHKPSNTKVDKKVEPKSCGGGGSGGGGSGGGGSGGGGSDIQMTQSPSSLSASVGDRVTITCLASEDISNDLAWYQQKPGKAPKLLIYFVDRLLDGVPSRFSGSGSGTDFTLTISSLQPEDFATYYCQQSYKYPPTFGQGTKLEIKGGGGSDKTHTCPPCPAPEAAGPSVFLFPPKPKDTLMISRTPEVTCVVVDVSHEDPEVKFNWYVDGVEVHNAKTKPREEQYNSTYRVVSVLTVLHQDWLNGKEYKCKVSNKALPAPIEKTISKAKGQPREPQVYTLPPSREEMTKNQVSLSCAVKGFYPSDIAVEWESNGQPENNYKTTPPVLDSDGSFFLVSKLTVDKSRWQQGNVFSCSVMHEALHNRFTQKSLSLSPG
light: DIQMTQSPSSLSASVGDRVTITCKASQNVYKKLEWYQQKPGKVPKVLIYHTNILQTGVPSRFSGSGSGTDYTLTISSLQPEDVATYYCYQWNSGPTFGGGTKVEIKRTVAAPSVFIFPPSDEQLKSGTASVVCLLNNFYPREAKVQWKVDNALQSGNSQESVTEQDSKDSTYSLSSTLTLSKADYEKHKVYACEVTHQGLSSPVTKSFNRGEC
notes: PD-L1 Fabs (Ly076) x central CD40 Fv (TM559)
binding result (CD40): binds | binding result (PD-L1 (binding assay)): binds

B2: Ly2444 (bispecific antibody, human IgG1, kappa)
heavy 1: QVQLVQSGAEVKKPGASVKVSCKASGYTFTDFWMSWVRQAPGQGLEWMGQIYPNTGTTHSNEKFKGRVTMTRDTSTSTVYMELSSLRSEDTAVYYCARSYHISTTPNWFAYWGQGTLVTVSSASTKGPSVFPLAPSSKSTSGGTAALGCLVKDYFPEPVTVSWNSGALTSGVHTFPAVLQSSGLYSLSSVVTVPSSSLGTQTYICNVNHKPSNTKVDKKVEPKSCDKTHTCPPCPAPEAAGPSVFLFPPKPKDTLMISRTPEVTCVVVDVSHEDPEVKFNWYVDGVEVHNAKTKPREEQYNSTYRVVSVLTVLHQDWLNGKEYKCKVSNKALPAPIEKTISKAKGQPREPQVYTLPPSREEMTKNQVSLWCLVKGFYPSDIAVEWESNGQPENNYKTTPPVLDSDGSFFLYSKLTVDKSRWQQGNVFSCSVMHEALHNHYTQKSLSLSPGGGGGSGGGGSGGGGSGGGGSEVQLVESGGGLVQPGGSLRLSCAASGFTFTNYGLHWVRQAPGKGLEWVSSISPSGGVTYYRDSVKGRFTISRDNSKNTLYLQMNSLRAEDTAVYYCAKPFLGWGGANWIAHWGQGTLVTVSS
heavy 2: QVQLVQSGAEVKKPGASVKVSCKASGYTFTDFWMSWVRQAPGQGLEWMGQIYPNTGTTHSNEKFKGRVTMTRDTSTSTVYMELSSLRSEDTAVYYCARSYHISTTPNWFAYWGQGTLVTVSSASTKGPSVFPLAPSSKSTSGGTAALGCLVKDYFPEPVTVSWNSGALTSGVHTFPAVLQSSGLYSLSSVVTVPSSSLGTQTYICNVNHKPSNTKVDKKVEPKSCDKTHTCPPCPAPEAAGPSVFLFPPKPKDTLMISRTPEVTCVVVDVSHEDPEVKFNWYVDGVEVHNAKTKPREEQYNSTYRVVSVLTVLHQDWLNGKEYKCKVSNKALPAPIEKTISKAKGQPREPQVYTLPPSREEMTKNQVSLSCAVKGFYPSDIAVEWESNGQPENNYKTTPPVLDSDGSFFLVSKLTVDKSRWQQGNVFSCSVMHEALHNRFTQKSLSLSPGGGGGSGGGGSGGGGSGGGGSDIQMTQSPSSLSASVGDRVTITCLASEDISNDLAWYQQKPGKAPKLLIYFVDRLLDGVPSRFSGSGSGTDFTLTISSLQPEDFATYYCQQSYKYPPTFGQGTKLEIK
light: B1 light
notes: PD-L1 Fabs (Ly076) x terminal CD40 Fv (TM559)
binding result (CD40): binds | binding result (PD-L1 (binding assay)): binds

B3: Ly2396 (bispecific antibody, human IgG1, kappa)
heavy 1: QVTLKESGPALVKPTQTLTLTCTFSGFSLSTSGTCVSWIRQPPGKALEWLATICWEDSKGYNPSLKSRLTISKDTSKNQAVLTMTNMDPVDTATYYCARREDSGYFWFPYWGQGTLVTVSSASTKGPSVFPLAPSSKSTSGGTAALGCLVKDYFPEPVTVSWNSGALTSGVHTFPAVLQSSGLYSLSSVVTVPSSSLGTQTYICNVNHKPSNTKVDKKVEPKSCDKTHTCPPCPAPEAAGPSVFLFPPKPKDTLMISRTPEVTCVVVDVSHEDPEVKFNWYVDGVEVHNAKTKPREEQYNSTYRVVSVLTVLHQDWLNGKEYKCKVSNKALPAPIEKTISKAKGQPREPQVYTLPPSREEMTKNQVSLWCLVKGFYPSDIAVEWESNGQPENNYKTTPPVLDSDGSFFLYSKLTVDKSRWQQGNVFSCSVMHEALHNHYTQKSLSLSPGGGGGSGGGGSGGGGSGGGGSQVQLVQSGAEVKKPGASVKVSCKASGYTFAGFEMHWVRQAPGQGLEWMGAIDPKTGGTDYNQKFKDRVTMTRDTSISTAYMELSRLRSDDTAVYYCARDLGYFDVWGQGTLVTVSS
heavy 2: QVTLKESGPALVKPTQTLTLTCTFSGFSLSTSGTCVSWIRQPPGKALEWLATICWEDSKGYNPSLKSRLTISKDTSKNQAVLTMTNMDPVDTATYYCARREDSGYFWFPYWGQGTLVTVSSASTKGPSVFPLAPSSKSTSGGTAALGCLVKDYFPEPVTVSWNSGALTSGVHTFPAVLQSSGLYSLSSVVTVPSSSLGTQTYICNVNHKPSNTKVDKKVEPKSCDKTHTCPPCPAPEAAGPSVFLFPPKPKDTLMISRTPEVTCVVVDVSHEDPEVKFNWYVDGVEVHNAKTKPREEQYNSTYRVVSVLTVLHQDWLNGKEYKCKVSNKALPAPIEKTISKAKGQPREPQVYTLPPSREEMTKNQVSLSCAVKGFYPSDIAVEWESNGQPENNYKTTPPVLDSDGSFFLVSKLTVDKSRWQQGNVFSCSVMHEALHNRFTQKSLSLSPGGGGGSGGGGSGGGGSGGGGSDIQMTQSPSSLSASVGDRVTITCRASQDIRSNLNWYQQKPGGAVKLLIYYTSRLHSGVPSRFSGSGSGTDYTLTISSLQPEDFATYFCQQSEKLPRTFGGGTKVEIR
light: NIQMTQSPSSLSASVGDRVTITCKAGQNVNNYLAWYQQKPGKAPKVLIFNANSLQTGVPSRFSGSGSGTDFTLTISSLQPEDFATYYCQQYNSWPTFGGGTKVEIKRTVAAPSVFIFPPSDEQLKSGTASVVCLLNNFYPREAKVQWKVDNALQSGNSQESVTEQDSKDSTYSLSSTLTLSKADYEKHKVYACEVTHQGLSSPVTKSFNRGEC
notes: PD-1 Fabs (Ly516) x terminal CD137 Fv
binding result (CD137 (binding assay)): binds | binding result (PD-1 (binding assay)): binds

More lines, now with the values ahead:

binding result (PD-L1 [1]): binds
B4: Ly076 (antibody, V domains shown)
VH: QVQLVQSGAEVKKPGASVKVSCKASGYTFTDFWMSWVRQAPGQGLEWMGQIYPNTGTTHSNEKFKGRVTMTRDTSTSTVYMELSSLRSEDTAVYYCARSYHISTTPNWFAYWGQGTLVTVSS
VL: DIQMTQSPSSLSASVGDRVTITCKASQNVYKKLEWYQQKPGKVPKVLIYHTNILQTGVPSRFSGSGSGTDYTLTISSLQPEDVATYYCYQWNSGPTFGGGTKVEIK
notes: Parent mAb; also called Anti-PD-L1 Ly076; parent anti-PD-L1 antibody

binding result (PD-L1 [2]): binds
B5: Ly076 (antibody, V domains shown)
VH: B4 VH
VL: B4 VL
notes: Parent mAb; also called parent anti-PD-L1 antibody
